Assay results from patent US20110287011A1 (ONCOMED PHARMACEUTICALS, published 2011).

Legend:
Assay in all cases: FACS on HEK293 cells transfected with the DDR1 variant
[1] = biological target: FLAG-tagged human DDR1 S175A variant (human, UniProt Q08345 19-913)
Experimental: (§1) Full length cDNA encoding FLAG-tagged human DDR1 variants were transiently transfected into HEK293 cells using standard procedures as known to one skilled in the art. To determine the capacity of antibodies to bind the DDR1 variants, antibodies were incubated with HEK293 cells transfected with plasmid encoding either wild type DDR1 or one of the point mutation variants. All cells were co-transfected with plasmid encoding GFP. The cells were analyzed by FACS as described herein for binding of the antibodies to wild type DDR1 and to DDR1 variants.

[2] = biological target: FLAG-tagged human DDR1 D68A variant (human, UniProt Q08345 19-913)
Chain of FLAG-tagged human DDR1 D68A variant (Q08345 other isoform, or with tags, fused parts or gaps D68A D68A limits assumed): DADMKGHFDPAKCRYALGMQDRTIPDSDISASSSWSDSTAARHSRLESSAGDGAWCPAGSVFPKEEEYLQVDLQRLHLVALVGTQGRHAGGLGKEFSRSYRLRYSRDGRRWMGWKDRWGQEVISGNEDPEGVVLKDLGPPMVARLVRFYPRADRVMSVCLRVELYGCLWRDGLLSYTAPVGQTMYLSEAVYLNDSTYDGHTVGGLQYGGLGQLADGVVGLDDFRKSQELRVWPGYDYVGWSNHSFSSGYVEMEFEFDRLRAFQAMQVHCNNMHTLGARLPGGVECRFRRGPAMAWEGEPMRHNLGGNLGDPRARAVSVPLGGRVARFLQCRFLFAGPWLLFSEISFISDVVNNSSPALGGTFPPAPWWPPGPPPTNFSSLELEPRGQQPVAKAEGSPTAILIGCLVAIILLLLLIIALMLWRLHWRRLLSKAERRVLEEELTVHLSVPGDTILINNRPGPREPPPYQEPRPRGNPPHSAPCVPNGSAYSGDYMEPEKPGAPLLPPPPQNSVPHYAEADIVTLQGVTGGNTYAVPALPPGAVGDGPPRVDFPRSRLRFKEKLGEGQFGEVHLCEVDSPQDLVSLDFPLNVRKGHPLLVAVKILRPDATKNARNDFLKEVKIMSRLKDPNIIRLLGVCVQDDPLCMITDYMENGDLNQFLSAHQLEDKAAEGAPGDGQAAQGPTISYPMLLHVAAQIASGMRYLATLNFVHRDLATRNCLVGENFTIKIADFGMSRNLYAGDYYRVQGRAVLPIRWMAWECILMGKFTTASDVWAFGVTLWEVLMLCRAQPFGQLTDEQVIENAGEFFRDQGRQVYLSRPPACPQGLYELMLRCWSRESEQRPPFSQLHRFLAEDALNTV
Experimental: as §1

[3] = biological target: FLAG-tagged human DDR1 R105A variant (human, UniProt Q08345 19-913)
Chain of FLAG-tagged human DDR1 R105A variant (Q08345 other isoform, or with tags, fused parts or gaps R105A R105A limits assumed): as the sequence (Q08345 other isoform, or with tags, fused parts or gaps D68A D68A limits assumed) above, with A50D, R87A counted along it
Experimental: as §1

[4] = biological target: FLAG-tagged human DDR1 L110A variant (human, UniProt Q08345 19-913)
Chain of FLAG-tagged human DDR1 L110A variant (Q08345 other isoform, or with tags, fused parts or gaps L110A L110A limits assumed): as the sequence (Q08345 other isoform, or with tags, fused parts or gaps D68A D68A limits assumed) above, with A50D, L92A counted along it
Experimental: as §1

[5] = biological target: FLAG-tagged human DDR1 E113Q variant (human, UniProt Q08345 19-913)
Chain of FLAG-tagged human DDR1 E113Q variant (Q08345 other isoform, or with tags, fused parts or gaps E113Q E113Q limits assumed): as the sequence (Q08345 other isoform, or with tags, fused parts or gaps D68A D68A limits assumed) above, with A50D, E95Q counted along it
Experimental: as §1

Measured: binding result

Chain of FLAG-tagged human DDR1 S175A variant (Q08345 other isoform, or with tags, fused parts or gaps S175A S175A limits assumed): as the sequence (Q08345 other isoform, or with tags, fused parts or gaps D68A D68A limits assumed) above, with A50D, S157A counted along it

B1: antibody 20M102 (antibody, mouse IgG1, kappa, V domains shown)
VH: EVQLQQSGSELVKPGASVKMSCKASGYTFTDYFMKWVKQSHGKSLEWIGDINPNNGDTFYIQKFKGKATLTVDKSSSTAYMQLNSLTSEDSAVYYCSRDLAYWGQGTLVAVSS
VL: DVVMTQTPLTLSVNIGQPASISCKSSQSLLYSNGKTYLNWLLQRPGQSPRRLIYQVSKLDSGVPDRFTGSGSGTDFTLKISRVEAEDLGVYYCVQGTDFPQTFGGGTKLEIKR
notes: Mouse monoclonal IgG purified from hybridoma supernatant; also called anti-DDR1 antibody 20M102; hybridoma ATCC PTA-10051
binds: all assays above
